# Read-outs that look alike come from different tables or passages of the source. Marks after values point to notes of the source that are not given here.
# B1: Recombinant human N-acetylgalactosamine-6-sulfatase (protein, UniProt P34059 27-522, looked up)
# N-acetylgalactosamine-6-sulfat …: APQPPNILLLLMDDMGWGDLGVYGEPSRETPNLDRMAAEGLLFPNFYSANPLCSPSRAALLTGRLPIRNGFYTTNAHARNAYTPQEIVGGIPDSEQLLPELLKKAGYVSKIVGKWHLGHRPQFHPLKHGFDEWFGSPNCHFGPYDNKARPNIPVYRDWEMVGRYYEEFPINLKTGEANLTQIYLQEALDFIKRQARHHPFFLYWAVDATHAPVYASKPFLGTSQRGRYGDAVREIDDSIGKILELLQDLHVADNTFVFFTSDNGAALISAPEQGGSNGPFLCGKQTTFEGGMREPALAWWPGHVTAGQVSHQLGSIMDLFTTSLALAGLTPPSDRAIDGLNLLPTLLQGRLMDRPIFYYRGDTLMAATLGQHKAHFWTWTNSWENFRQGIDFCPGQNVSGVTTHNLEDHTKLPLIFHLGRDPGERFPLSFASAEYQEALSRITSVVQQHQEALVPAQPQLNVCNWAVMNWAPPGCEKLGKCLTPPESIPKKCLWSH
# notes: enzyme replacement therapy (elosulfase alfa) for the treatment of MPS IVA
# B2: Alexa488-rhGALNS (conjugate, UniProt P34059 27-522, looked up)
# N-acetylgalactosamine-6-sulfat …: APQPPNILLLLMDDMGWGDLGVYGEPSRETPNLDRMAAEGLLFPNFYSANPLCSPSRAALLTGRLPIRNGFYTTNAHARNAYTPQEIVGGIPDSEQLLPELLKKAGYVSKIVGKWHLGHRPQFHPLKHGFDEWFGSPNCHFGPYDNKARPNIPVYRDWEMVGRYYEEFPINLKTGEANLTQIYLQEALDFIKRQARHHPFFLYWAVDATHAPVYASKPFLGTSQRGRYGDAVREIDDSIGKILELLQDLHVADNTFVFFTSDNGAALISAPEQGGSNGPFLCGKQTTFEGGMREPALAWWPGHVTAGQVSHQLGSIMDLFTTSLALAGLTPPSDRAIDGLNLLPTLLQGRLMDRPIFYYRGDTLMAATLGQHKAHFWTWTNSWENFRQGIDFCPGQNVSGVTTHNLEDHTKLPLIFHLGRDPGERFPLSFASAEYQEALSRITSVVQQHQEALVPAQPQLNVCNWAVMNWAPPGCEKLGKCLTPPESIPKKCLWSH
# modifications: Alexa488 label
# How the values were obtained:
# [1] = after 22 weeks, cited from earlier work; for half-life (t1/2): plasma
# [2] = Efficacy in clinical study: 6MWT distance and urine keratan sulfate (uKS); assay type: in vivo, human; details: 24-week treatment period, QOW and QW
# Experimental: The primary efficacy measure in the clinical study was the distance walked in a 6MWT, which provides a measure of endurance. Keratan sulfate, an rhGALNS substrate, was also measured in individuals' urine (uKS) to track the pharmacodynamic effect of treatment with elosulfase alfa. NAb titers detected with the functional NAb assay were plotted against the change from baseline to week 24 in 6MWT distance, and the percentage change in uKS from baseline. No association was observed between NAb titer and 6MWT (FIG. 11A) or NAb titer and uKS (FIG. 11B) in individuals dosed weekly or every 2 weeks.
# [3] = cited from earlier work; for proportion of patients with NAb positivity: long-term extension study
# [4] = NAb and TAb titers and positivity in individuals treated with elosulfase alfa (clinical study); assay type: in vivo, human
# Experimental: Samples from a 24 week study of rhGALNS (elosulfase alfa) treatment were assessed for NAb at baseline and weeks 2, 4, 8, 12, 16, 20 and 24. rhGALNS was infused at 2.0 mg/kg body weight in two dosing cohorts, weekly and every other week (QOW). Positive samples (FIG. 2A) show comparatively low NAb titers [wk 24 mean 52 (range 0 to 1,098) in the weekly group and 130 (range 0 to 1,659) in the QOW group] relative to anti-rhGALNS total antibody (TAb) titers [wk 24 mean 167,737 (range 0 to 1.77×10^6) in the weekly group and 190,901 (range 810 to 1.77×10^6) in the QOW group] (FIG. 2B).
# NAb titers and clinical outcomes To compare the functional NAb assay with the previously reported ELISA-based CI-M6PR binding assay for detecting NAb in elosulfase alfa-treated individuals with Morquio A syndrome [Schweighardt et al., supra], serum samples from the clinical trial were reanalyzed with the cell-based assay. Sufficient serum-sample volumes were available for the majority (842/847 [99%]) of serum sample collection time points to obtain confirmed positive/negative results. The overall concordance was high (89%) between NAb positivity in the receptor binding assay and the cell-based assay. Furthermore, the concordance was consistent over the 24-week treatment period (FIG. 9A).
# TAb titers detected using the CI-M6PR binding assay reported previously [Schweighardt et al., supra] were compared to the time course for NAb titer development detected with the functional NAb assay (FIG. 9B). Titers of both TAbs and NAbs increased rapidly during the first 8 weeks of treatment then plateaued from week 8 to week 24 in both the QOW and QW treatment groups (FIG. 9B). Although the frequency of drug administration had minimal effect on TAb and NAb titers at week 24, the QW treatment group appeared to have higher titers of both TAbs and NAbs in the initial 4 weeks of treatment. Subjects in both the QOW and QW treatment groups developed different NAb titer courses over 24 weeks.
# [5] = Elosulfase alfa pharmacokinetics in individuals with Morquio A syndrome; assay type: in vivo, human; details: QOW and QW cohorts, week 22 PK vs week 24 NAb titer
# From the text: Effect of NAb Titer on Elosulfase Alfa Pharmacokinetics: In order to further explore the association between NAbs and pharmacokinetics, NAb titers from the functional NAb assay were compared to total clearance (CL) of drug after intravenous administration and elimination half-life (t1/2). Increased NAb titers were associated with prolonged t1/2 in both the QOW and QW cohorts (FIG. 12A).
# Antibodies that neutralize elosulfase alfa uptake through CI-M6PR may not exist at concentrations sufficient to prevent effective amounts of elosulfase alfa from reaching target tissues. Although NAbs that block uptake of drug are measureable in our cell-based NAb assay, this amount of NAbs may be insignificant relative to elosulfase alfa dose. This cell-based assay was designed to detect the lowest possible NAb concentrations, ideally prior to observed clinical effects. […] 53 (2014) 1137-1147]. […] 53 (2014) 1137-1147]. Although further investigation is needed, one aspect to the lack of neutralizing antibody effect on efficacy may be that rapid clearance of drug from plasma diminishes the rate of neutralizing antibody-elosulfase alfa complex formation. […] Scler. 15 (2009) 977-983].
# [6] = tested on: Jurkat cells; assay: Cell-based flow cytometry assay of Alexa488-rhGALNS uptake (screening assay, % SI); design: species or system human; details: for NHPS (% SI): no AbPC; for MFI: Alexa488-rhGALNS 0.4 μg/mL, 20% pooled human serum
# Experimental: Cell uptake of rhGALNS is measured using flow cytometry to determine the amount of fluorophore-conjugated rhGALNS taken up by Jurkat cells. Jurkat cells are a non-adherent human T cell line that express CI-MPR, which binds and targets rhGALNS to the lysosome. rhGALNS neutralizing antibodies (NAb) are detected in samples by a decrease in fluorophore-conjugated rhGALNS uptake (calculated as % inhibition) that exceeds the screening cut point (SCP).
# For a 1:1 dilution, 60 μL per well of controls were added in duplicate or in quadruplicate for 2 sets into the appropriate wells. Similarly, for a 1:1 dilution of sample, 60 μL per well of patient screening samples were added into the appropriate wells. For a 1:1 dilution for the confirmation assay, 60 μL per well of patient confirmation samples were added in duplicate into the corresponding wells. The plate was covered, wrapped in foil and allowed to incubate overnight for 14 to 20 hours at 2-8° C.
# Assay: Prior to the sample incubation step, the cell plates were removed from the CO2 incubator and observed to ensure the cells were healthy and viable. […] After the incubation was completed, the cells were washed in PBS by centrifuging the plate for 6 min at 310×g in a tabletop centrifuge at 14 to 18° C., repeated two to five times as appropriate. After the last wash, the plate was removed from the centrifuge, the cell pellet resuspended in 100 μL viability stain (red fluorescent reactive dye 1:1000 dilution) and tested for viability. Once viability testing was complete, the cells were centrifuged 6 min at 310×g in a tabletop centrifuge at 14 to 18° C.
# Percent Signal Inhibition (% SI) is calculated as [% SI=1—mean median fluorescence intensity (MFI) of sample/mean MFI of control×100]. Confirmatory assay data were analyzed as recovery ratio, defined as mean confirmatory assay MFI of sample/mean screening assay MFI of sample. The titer was calculated as the interpolated dilution factor at which the sample crossed the titer cut point determined by linear regression analysis (Microsoft Excel).
# [7] = tested on: Jurkat cells; assay: Confocal imaging of Alexa488-rhGALNS internalization and trafficking to lysosomes; assay type: cell-based, human; details: LysoTracker Red
# Experimental: Confocal Imaging: Internalization of Alexa488-rhGALNS and trafficking to lysosomes was confirmed by confocal microscopy by incubating cells from the functional NAb assay described in section 2.3 with 50 nM LysoTracker Red (Molecular Probes) at 37° C. for 1 h. Cells were then washed with serum-free RPMI-1640 and mounted with Prolong Gold Antifade Mountant with DAPI (Molecular Probes), sealed, and visualized using a Leica SP8 confocal microscope (Leica Microsystems). Confocal Z-stacks were acquired using a 63× Plan-Apo objective with 4× zoom and LASX software (Leica Microsystems). Z-stacks were rendered in 3-D and exported using Volocity software version 6.3 (PerkinElmer).
molecule,measurement,setting,value
B1,half-life (t1/2),[1]; 2.0 mg/kg QOW,19 min
same,plasma Cmax,[1]; 2.0 mg/kg QOW,2600 ng/mL
same,half-life (t1/2),[1]; 2.0 mg/kg QW,36 min
same,plasma Cmax,[1]; 2.0 mg/kg QW,4000 ng/mL
same,"impact of NAb titers on efficacy (6MWT, uKS)",[2],no detrimental impact
same,development of drug-specific total antibodies (TAb),"[3]; clinical study, treated individuals",all individuals
same,proportion of patients with NAb positivity,[3]; week 36,85.9%
same,proportion of patients with NAb positivity,[3]; week 120,66.0%
same,mean NAb titer,[4]; at 12 weeks,118±271
same,"NAb titer, mean","[4]; wk 24, 2.0 mg/kg QOW group",130
same,"anti-rhGALNS total antibody (TAb) titer, mean","[4]; wk 24, 2.0 mg/kg QOW group","190,901"
same,"NAb titer, mean","[4]; wk 24, 2.0 mg/kg weekly group",52
same,"anti-rhGALNS total antibody (TAb) titer, mean","[4]; wk 24, 2.0 mg/kg weekly group","167,737"
same,CL with increased NAb titers (trend),[5],decreased
same,t1/2 with increased NAb titers,[5],prolonged
same,concentration of unlabeled rhGALNS that reduced Alexa488-rhGALNS uptake,[6]; NPS without AbPC,≥ 0.22 µg/mL
same,rhGALNS concentration the assay can tolerate before interference with Alexa488-rhGALNS uptake,[6]; drug tolerance,up to 0.22 μg/mL
same,highest neat concentration of rhGALNS at which the low and high PC-spiked samples screened positive,[6]; highest concentration tested,2.00 µg/mL
same,NHPS (% SI),[6]; unlabeled elosulfase alfa 0.0027 μg/mL,−10.84 % SI
same,NHPS (% SI),[6]; unlabeled elosulfase alfa 0.008 μg/mL,3.79 % SI
same,NHPS (% SI),[6]; unlabeled elosulfase alfa 0.025 μg/mL,−7.21 % SI
same,NHPS (% SI),[6]; unlabeled elosulfase alfa 0.074 μg/mL,−5.58 % SI
same,NHPS (% SI),[6]; unlabeled elosulfase alfa 0.22 μg/mL,8.00 % SI
same,NHPS (% SI),[6]; unlabeled elosulfase alfa 0.67 μg/mL,26.94* % SI
same,NHPS (% SI),[6]; unlabeled elosulfase alfa 2.00 μg/mL,55.42* % SI
B2,localization by confocal imaging,[7],co-localized with lysosomes
same,MFI,[6]; cells incubated at 4° C.,92.9±1.50
same,MFI,[6]; cells incubated at 37° C.,4425±98.6
same,Kuptake,"[6]; Hanes-Woolf plot linear regression, dose-response 0 to 363.6 nM",46.3 nM
same,Kuptake,"[6]; Jurkat T cells, 4 hours incubation at 37° C.",approximately 5 μg/mL
